These are literature values, as cited in patent publication US7235367B2, “Method using crystal structure of estrogen receptor-β complex” (Genetics Institute, LLC., priority 2000, dated 2007).

For the data set, the target named is ER-β (Homo sapiens, UniProt Q92731). The settings on record: co-activator, ER-β versus ER-α.
Chain of ER-β (Q92731 whole entry): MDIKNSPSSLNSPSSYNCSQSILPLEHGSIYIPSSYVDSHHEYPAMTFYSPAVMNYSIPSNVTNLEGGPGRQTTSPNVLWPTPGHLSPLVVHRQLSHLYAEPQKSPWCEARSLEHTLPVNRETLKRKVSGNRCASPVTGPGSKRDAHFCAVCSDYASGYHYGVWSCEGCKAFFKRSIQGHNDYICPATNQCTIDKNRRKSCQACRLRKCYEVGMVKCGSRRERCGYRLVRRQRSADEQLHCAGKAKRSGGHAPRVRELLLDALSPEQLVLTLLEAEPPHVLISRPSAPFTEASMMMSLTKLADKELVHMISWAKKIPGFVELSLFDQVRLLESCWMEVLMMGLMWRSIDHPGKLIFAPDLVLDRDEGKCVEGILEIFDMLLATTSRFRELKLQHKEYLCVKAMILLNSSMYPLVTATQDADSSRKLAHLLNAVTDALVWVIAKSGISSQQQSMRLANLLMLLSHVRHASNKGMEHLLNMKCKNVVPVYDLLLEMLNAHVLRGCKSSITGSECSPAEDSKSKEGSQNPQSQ

As to “SRC-1: co-activator protein that preferentially activates ER-β”, the “preferential activation of ER subtype” value is “preferentially activates ER-β”.
